# Measured values as given in US20250011363A1, “OPTIMIZED SHORTENED PEPTIDE THAT BINDS TO ACETYLCHOLINE RECEPTOR, AND USE THEREOF” (SKINMED CO., LTD., priority 2021, published 2025).
# Molecular target: acetylcholine receptor (Homo sapiens, UniProt P02708)
# Test: SPR binding affinity (RU) of optimized 5mer/6mer/7mer peptides, Examples 6-7
# Settings: 6mer-1 Top sequence; SPR; peptides tested at 10 μM
# In short: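 Single-concentration screen: 10 μM peptide, SPR detection, binding expressed as RU.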
# acetylcholine receptor, sequence (P02708 21-457): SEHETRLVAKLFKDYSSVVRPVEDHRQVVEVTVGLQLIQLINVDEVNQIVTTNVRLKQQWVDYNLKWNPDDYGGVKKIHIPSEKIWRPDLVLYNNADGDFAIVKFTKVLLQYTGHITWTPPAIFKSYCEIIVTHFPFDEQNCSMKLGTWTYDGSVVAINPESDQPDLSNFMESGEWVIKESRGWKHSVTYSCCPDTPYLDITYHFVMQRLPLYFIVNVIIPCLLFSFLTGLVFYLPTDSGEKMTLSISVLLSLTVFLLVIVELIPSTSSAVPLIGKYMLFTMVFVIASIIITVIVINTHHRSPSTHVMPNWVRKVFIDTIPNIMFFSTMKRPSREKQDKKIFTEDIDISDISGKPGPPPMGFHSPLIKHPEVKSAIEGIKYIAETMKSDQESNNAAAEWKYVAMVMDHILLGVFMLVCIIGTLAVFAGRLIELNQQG
row,Substance,Binding affinity [Ru]
1,6mer-1-236 (RKLISR),151
2,6mer-1-294 (KKLYRR),123
3,6mer-1-343 (KKLYTK),135
4,6mer-1-394 (KKVRRR),149
5,6mer-1-286 (RKLISK),139
6,6mer-1-241 (RRLYYK),148
7,6mer-1-229 (RRRLLR),153
8,6mer-1-361 (RKSVQR),127
9,6mer-1-313 (RRWFCK),148
10,6mer-1-218 (KKQVTR),126
11,6mer-1-368 (RRRFSK),145
12,6mer-1-355 (RKVFYR),148
13,6mer-1-320 (KRVQYR),121
14,6mer-1-290 (RKQLTK),146
15,6mer-1-310 (RKRQLK),127
16,6mer-1-382 (KRQYTR),139

# Same assay, conditions: 6mer-2 Top sequence; SPR; peptides tested at 10 μM
row,Substance,Binding affinity [Ru]
1,6mer-2-173 (RQQCKK),127
2,6mer-2-103 (RVVTKK),136
3,6mer-2-58 (KRLQRK),122
4,6mer-2-65 (KGVCKR),148
5,6mer-2-62 (RLVTKR),147
6,6mer-2-96 (KWRQRK),154
7,6mer-2-108 (RVVYKK),153

# Same assay, conditions: SPR, Resonance Units; 5mer Bottom sequence (bottom combinations); peptides tested at 10 μM
row,Substance,Binding affinity [Ru]
1,5mer-909 (RINVK),33
2,5mer-975 (RFAHK),18
3,5mer-974 (RHMMR),26
4,5mer-752 (KAWVK),26
5,5mer-1079 (KYTGR),31
6,5mer-986 (RPMDK),12
7,5mer-743 (KYAFR),15
8,5mer-686 (RFNIR),18
9,5mer-1004 (RDADR),30
10,5mer-761 (RMPWR),31
11,5mer-748 (REPMK),12
12,5mer-1075 (RKHIK),26
13,5mer-779 (KYPPR),21

# Same assay, conditions: SPR, Resonance Units; peptides tested at 10 μM; 6mer-1 Bottom sequence
row,Substance,Binding affinity [Ru]
1,6mer-1-1070 (KKTCDK),24
2,6mer-1-1063 (KKIDHK),25
3,6mer-1-1088 (RRETHK),38
4,6mer-1-1041 (RKEHGK),23
5,6mer-1-1052 (KRHWIR),33
6,6mer-1-1184 (RRDTVK),30
7,6mer-1-1132 (RRKAER),31
8,6mer-1-1128 (KKKKPK),39

# Same assay, conditions: SPR, Resonance Units; peptides tested at 10 μM; 6mer-1 Bottom sequence (Table 11)
row,Substance,Binding affinity [Ru]
1,6mer-1-603 (KRPHFK),13
2,6mer-1-698 (KRFNHK),27
3,6mer-1-781 (RRHWDK),16
4,6mer-1-681 (KKEWKK),32
5,6mer-1-626 (KRPDNR),27

# Same assay, conditions: SPR, Resonance Units; peptides tested at 10 μM; 6mer-2 Bottom sequence
row,Substance,Binding affinity [Ru]
1,6mer-2-906 (KYCDKK),40
2,6mer-2-894 (RFHWRR),22
3,6mer-2-911 (KMSGKR),21
4,6mer-2-904 (KCCFKK),30
5,6mer-2-746 (RIKVRK),26
6,6mer-2-791 (KNMNRK),27
7,6mer-2-810 (KHAKKK),18
8,6mer-2-989 (KAHNKR),22
9,6mer-2-900 (RFSAKK),11
10,6mer-2-870 (KMTEKK),21
11,6mer-2-868 (RTPNRR),30
12,6mer-2-910 (RHEHRR),21
13,6mer-2-865 (RHCNRK),16
14,6mer-2-932 (RIPWRR),35
15,6mer-2-736 (KNNHKK),29
16,6mer-2-887 (RCPKKR),18
17,6mer-2-799 (KCSAKK),13

# Same assay, conditions: SPR, Resonance Units; peptides tested at 10 μM; 6mer-2 Top sequence
row,Substance,Binding affinity [Ru]
1,6mer-2-556 (RSICKK),148
2,6mer-2-435 (RWVYKR),154
3,6mer-2-555 (RSVSKK),154
4,6mer-2-515 (RWYCRK),123
5,6mer-2-453 (RLVRKK),141
6,6mer-2-468 (RSFSKR),133
7,6mer-2-585 (RSFRRK),136
8,6mer-2-494 (KGLLRR),144
9,6mer-2-506 (KSLLKK),135

# Same assay, conditions: SPR, Resonance Units; peptides tested at 10 μM; 6mer-2 Top sequence (Table 12)
row,Substance,Binding affinity [Ru]
1,6mer-2-307 (RLRSKK),141
2,6mer-2-275 (KLITRR),135
3,6mer-2-313 (RWRTKR),154
4,6mer-2-273 (KLRQRR),131
5,6mer-2-397 (RSIYRK),154

# Same assay, conditions: SPR, peptides at 10 μM; 6mer-2 Bottom sequence
row,Substance,Binding affinity [Ru]
1,6mer-2-1181 (KACWKR),32
2,6mer-2-1066 (KPEHKR),29
3,6mer-2-1063 (RFNVRK),24
4,6mer-2-1184 (KFWVRR),22
5,6mer-2-1119 (KCTVRK),39
6,6mer-2-1026 (KENHRK),33
7,6mer-2-998 (KEMWKK),43
8,6mer-2-1176 (RYTEKK),43
9,6mer-2-1047 (RHDDKR),28
10,6mer-2-1178 (KTTVRK),30
11,6mer-2-1153 (KHKPKR),27

# Same assay, conditions: SPR, peptides tested at 10 μM; 5mer Top sequence
row,Substance,Binding affinity [Ru]
1,5mer-125 (RVRQK),67
2,5mer-188 (KWFSK),82
3,5mer-449 (KGLYR),65
4,5mer-139 (RLQYK),73
5,5mer-399 (KWIQR),62
6,5mer-59 (KLQYR),68
7,5mer-86 (RRLCK),55
8,5mer-415 (KVFLR),77
9,5mer-79 (RWFLR),82
10,5mer-507 (KWVQK),84
11,5mer-22 (RQQLK),66
12,5mer-421 (RVVYK),68
13,5mer-337 (KGRSR),67
14,5mer-106 (KLLQR),78
15,5mer-44 (RSRTR),59
16,5mer-461 (KQLLK),74

# Same assay, conditions: SPR, peptides tested at 10 μM; 5mer Top sequence (top combinations)
row,Substance,Binding affinity [Ru]
1,5mer-598 (RVRSK),84
2,5mer-567 (RRYCK),63
3,5mer-284 (KQVQR),52
4,5mer-520 (RVLLK),86
5,5mer-276 (RSLRR),70
6,5mer-253 (RSLYR),75
7,5mer-261 (RRVLR),59

# Same assay, conditions: SPR, peptides tested at 10 μM; 6mer-1 Bottom sequence (Table 11)
row,Substance,Binding affinity [Ru]
1,6mer-1-903 (KKHKPR),37
2,6mer-1-883 (KKIDDK),21
3,6mer-1-868 (KKHHAR),14
4,6mer-1-892 (RKTEKR),20
5,6mer-1-829 (RRIHKK),25
6,6mer-1-969 (RKDHWR),33
7,6mer-1-817 (RRIMKR),16
8,6mer-1-989 (KRATVR),27
9,6mer-1-887 (KRINHR),30

# Same assay, conditions: SPR, peptides tested at 10 μM; 6mer-1 Top sequence
row,Substance,Binding affinity [Ru]
1,6mer-1-455 (RRVFYK),126
2,6mer-1-485 (RRWYRR),126
3,6mer-1-504 (RRSITR),122
4,6mer-1-561 (RKVYLK),131
5,6mer-1-564 (KRSITK),139
6,6mer-1-477 (KRQQTK),145
7,6mer-1-551 (KRGRLR),142
8,6mer-1-476 (KRRRQK),154
9,6mer-1-555 (KKWYLK),128

# Same assay, conditions: SPR, peptides tested at 10 μM; 6mer-1 Top sequence (top combinations)
row,Substance,Binding affinity [Ru]
1,6mer-1-107 (KKQRSR),131
2,6mer-1-45 (RKGLTK),145
3,6mer-1-193 (KRVQLK),149
4,6mer-1-82 (KKVLYR),123
5,6mer-1-202 (RRQLTK),154
6,6mer-1-81 (RRWQLR),148

# Same assay, conditions: SPR; XRRGVRR-7mer and RRGVRRX-7mer
row,Substance,"Binding affinity, values relative to the RRGVRR sequence"
1,3653 (YRRGVRR) [compound 3653],145

# Same assay, conditions: SPR; XRRQRR-6mer and RRQRRX-6mer
row,Substance,"Binding affinity, relative value to the RRQRR sequence"
1,3606 (LRRQRR) [compound 3606],144

# Same assay, conditions: SPR; peptides tested at 10 μM; 5mer Bottom sequence
row,Substance,Binding affinity [Ru]
1,5mer-1186 (KMWVK),12
2,5mer-855 (RFMKK),18
3,5mer-1200 (RKNEK),16
4,5mer-1162 (KIKKK),15
5,5mer-1128 (REWVR),26
6,5mer-1121 (RFKVK),29
7,5mer-823 (KECFK),26
8,5mer-1166 (KTHEK),32
9,5mer-1156 (KKMNK),13
10,5mer-1130 (RFMVR),17
11,5mer-1171 (RCSWK),21
